From patent US20100203559A1 come the findings set out here.

Substitutions are numbered along the chain they refer to.

Assay [1] concerns the target SNAP-25134-197 peptide (human). The assay is described as follows: SPR (BIAcore 3000), peptide amine-coupled to CM5, antibody as analyte, 1:1 fit.
Assay [2] concerns the target SNAP-25134-197 peptide (human). Put plainly: SPR (BIAcore 3000); by Table 9 the KD of 1D3B8 is the lower one.
Assay [3] addresses SNAP-25134-197 peptide (human). The assay is described as follows: SPR (BIAcore 3000), peptide amine-coupled to CM5, antibody as analyte, 1:1 fit; first of two runs.
Assay [4] addresses SNAP-25134-197 peptide (human). Put plainly: SPR (BIAcore 3000), peptide amine-coupled to CM5, antibody as analyte, 1:1 fit; second of two runs, other chip.

B1: α-SNAP-25 monoclonal antibody 1D3B8 (antibody, V domains shown)
VH: QVKLQESGAELVKPGASVKISCKASGYIFTDHALHWVRQKPEQGLEWIGYIFPGNGNIEYNEKFKGKATLTADKSSSTAYMQLNSLTSGDSAMYFCKKMDYWGQGTTVTVSS
VL: DVLMTQTPLSLPVSLGDQASISCRSSQSIVHSNGNTYLEWYLQKPGQSPKLLIYKVSNRFSGVPDRFSGSGSGTDFTLKISRVEAEDLGVYYCFQGSHVPPTFGAGTKLELKR
In assay [1], B1 gave a Kd of 0.05 nM, a koff of 5.78e-05 s⁻¹ and a kon of 1.06e+06 M⁻¹ s⁻¹. The molecule also gave a fold difference of the equilibrium disassociation constant against MC-6050 and MC-6053 in assay [2] of 10 fold.

B2: α-SNAP-25 monoclonal antibody 2C9B10 (antibody, V domains shown)
VH: B1 VH with I28T, A33S, L34I, R38K, E42G, I51L, I58F, Q82H, G89E, M93V
VL: DIQMTQSPASLSASVGETVTITCRTTENIYSYFVWSQQRQGKSPQLRVYNAKSLAEGVPSSFNVSVSGTQFSLKINSLQPEDFGTYHCQHHYGTPYTFGGGTRLEIRR
In assay [1], B2 gave a Kd of 27.1 nM, a koff of 0.000311 s⁻¹ and an association rate constant (kon) of 11500 M⁻¹ s⁻¹.

B3: α-SNAP-25 monoclonal antibody 2E2A6 (antibody, V domains shown)
VH: QVQLQQSDAELVKPGASVKISCRASGYTFTDHSIHWVKQQPGQGLEWIGYIFPGNGNIEYNDKFKGKATLTADKSSGTAYMQLNSLTSEDSAVYFCKRMGYWGQGTSVTVSS
VL: DVLMTQTPLTLSVTIGQPASISCKSSQSLLYTNGKTYLTWLFQRPGQSPKRLIYLVSELDSGVPDRFSGSGSGTDFTLEITRVEAEDLGVYYCLQSAHFPFTFGSGTKLEIKR
In assay [3], B3 displayed a Kd of 0.09 nM, an off-rate constant (koff) of 0.000153 s⁻¹ and a kon of 1.7e+06 M⁻¹ s⁻¹. In assay [4], the Kd was found to be 0.405 nM, the koff is 6.74e-05 s⁻¹ and the kon was determined as 166000 M⁻¹ s⁻¹.

B4: α-SNAP-25 monoclonal antibody 3C1A5 (antibody, V domains shown)
VH: QVKLQESGAELVKPGASVKISCKASGYTFTDHSIHWVKQKPGQGLEWIGYLFPGNGNFEYNEKFKGKATLTADKSSSTVYMYLNSLTSEDSAVYFCKRMGYWGQGTTVTVSS
VL: B3 VL with L3V, Y31N, F42I, K50Q, E58K, E79K, T81S, A97S
In assay [1], B4 came in with a Kd of 1.33 nM, a koff of 0.000288 s⁻¹ and a kon of 217000 M⁻¹ s⁻¹.
